Experimental data reported in publication PMC9864931 (Vaccines, 2022).

Molecular target: E. coli-produced Wuhan-Hu1 RBD (receptor binding domain of the SARS-CoV-2 spike protein, a.a. 319-542) (SARS-CoV-2 (Wuhan-Hu1), UniProt P0DTC2)
Experiment: ELISA
Conditions: both partners purified

B1: mAb WRAIR-2057 (antibody, V domains shown)
VH: EVQLVQSGAEVKKPGESLKISCKGSGYSFISYWIAWVRQMPGKGLEWMGIIYPGDSDTTYSPSFQGQVTISADKSISTAYLQWSSLKASDTAIYYCARLLYYSDSSPLDSWGQGTLVTVSS
VL: DIQMTQSPSSLSASVGDRVTITCRASQSISTYLNWYQQKPGKAPNLLIYAASSLQSGVPSRFSGSGSGTDFTLTISSLQPEDFATYYCQQSHSTPRTFGPGTKVDIK
B1: binds.
